In US20090149389A1 (PURDUE RESEARCH FOUNDATION, published 2009):
Where no end group is shown, it is not given here. [ ]: non-standard residue; d: D form.

B1: WLRRIKAWLRRIKALARQLAVA (peptide)
peptide: WLRRIKAWLRRIKALARQLAVA
B2: WLRRIKAWLRRIKALNRQLAVA (peptide)
peptide: WLRRIKAWLRRIKALNRQLAVA
B3: WLRRIKAWLRRIKKKALARQLAVA (peptide)
peptide: WLRRIKAWLRRIKKKALARQLAVA
B4: WLRRIKAWLRRIKALARQLGVA (peptide)
peptide: WLRRIKAWLRRIKALARQLGVA
B5: WLKKIKAWLKKIKALNRQLGVVA (peptide)
peptide: WLKKIKAWLKKIKALNRQLGVVA
B6: KALNRQLAVAA (peptide)
peptide: KALNRQLAVAA
B7: KALNRALGVAA (peptide)
peptide: KALNRALGVAA
B8: KKKALNRQLGVAA (peptide)
peptide: KKKALNRQLGVAA
B9: KALNRQLGVA (peptide)
peptide: KALNRQLGVA
B10: KALNRQdLGVAA (peptide)
peptide: KALNRQ[dL]GVAA
B11: KAANRQLGVAA (peptide)
peptide: KAANRQLGVAA
B12: KALNRQLGVAA (peptide)
peptide: KALNRQLGVAA
B13: KALNRQAGVAA (peptide)
peptide: KALNRQAGVAA
B14: KALNRQLGAAA (peptide)
peptide: KALNRQLGAAA
B15: KALNAQLGVAA (peptide)
peptide: KALNAQLGVAA

Molecular target: T1, MAPKAP kinase II (MK2) (UniProt P49137 1-400, limits assumed)
Experiment: cell-based or functional assay

T1 sequence (P49137 whole entry): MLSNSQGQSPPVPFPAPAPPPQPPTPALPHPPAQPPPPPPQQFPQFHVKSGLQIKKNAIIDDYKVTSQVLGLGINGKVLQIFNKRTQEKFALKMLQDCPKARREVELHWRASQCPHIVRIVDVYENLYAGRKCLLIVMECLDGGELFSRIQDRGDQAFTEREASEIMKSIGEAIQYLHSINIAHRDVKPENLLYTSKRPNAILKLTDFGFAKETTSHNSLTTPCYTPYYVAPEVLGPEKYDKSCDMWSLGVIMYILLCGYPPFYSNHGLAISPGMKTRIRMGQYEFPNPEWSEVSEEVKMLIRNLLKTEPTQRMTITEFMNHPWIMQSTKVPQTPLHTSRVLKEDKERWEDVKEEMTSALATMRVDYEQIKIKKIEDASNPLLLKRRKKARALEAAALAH

In order of falling “% of Blank Reaction Velocity at an Inhibitor Concentration of 6.25pN” value:
1. B4  3.9%
2. B1  3.3%
3. B3  1%
4. B2  -2.1%

Molecular target: T1, MAPKAP kinase II (MK2)
Experiment: cell-based or functional assay
Remark: another data set of the same source

In order of falling “% of … [SEQ ID NO: 124] Reaction Velocity at an Inhibitor Concentration of 100 µM” value:
1. B14  373%
2. B7  358%
3. B15  358%
4. B10  357%
5. B11  152%
6. B13  118%
7. B9  100%
8. B12  100%
9. B8  91%
10. B6  72%
11. B5  -32%
